This series concerns the molecule itself. As to the kind of experiment: crystal structure; in meso crystals from 10 wt% DSPG/MP swollen mesophase, 20 °C, 0.2 M (NH4)SO4, 0.02 M NaCl, 0.02 M Na acetate pH 4, 33% v/v PEG200; molecular replacement with 4HFI and 4NPQ; 6 Å; closed state.

One protein from article PMC5803273, “Design of ultra-swollen lipidic mesophases for the crystallization of membrane proteins with large extracellular domains” (Nature Communications, 2018) can be followed below.

B1: Gloeobacter violaceus ligand-gated ion channel (GLIC) (natural protein)
chain: VSPPPPIADEPLTVNTGIYLIECYSLDDKAETFKVNAFLSLSWKDRRLAFDPVRSGVRVKTYEPEAIWIPEIRFVNVENARDADVVDISVSPDGTVQYLERFSARVLSPLDFRRYPFDSQTLHIYLIVRSVDTRNIVLAVDLEKVGKNDDVFLTGWDIESFTAVVKPANFALEDRLESKLDYQLRISRQYFSYIPNIILPMLFILFISWTAFWSTSYEANVTLVVSTLIAHIAFNILVETNLPKTPYMTYTGAIIFMIYLFYFVAVIEVTVQHYLKVESQPARAASITRASRIAFPVVFLLANIILAFLFF
notes: GLIC, Gloeobacter violaceus ligand-gated ion channel; expressed from pET20-MBP-thrombin-GLIC (N-terminal signal peptide, MBP, thrombin site, GLIC); MBP removed by thrombin; the pentamer is printed as 174 kDa, 1585 amino acids (317 per chain); also called Gloeobacter ligand-gated ion channel; GLIC pentamer; not shown: MBP, N-terminal, cleaved
With B1, the “stoichiometry N” value was determined as 5.

Usually stoichiometry N stands for the number of molecules, sites or subunits per partner or assembly.
